{"source": "the nanobody polyreactivity screen of Harvey et al. (2022)"}
{"test": "yeast display, Sf9 membrane polyspecificity reagent, FACS + sequencing; frameworks hold sequencing errors", "outline": "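Galactose induction of a Saccharomyces cerevisiae BJ5465 synthetic nanobody display library ran 36–48 hours. The cells were then stained for 1 hour at 4 °C with 10% biotinylated, detergent-solubilized Sf9 membrane reagent, pulled down on streptavidin microbeads and FACS-sorted into low and high (top ~1%) gates on expression and reagent-binding fluorescence. Labels for polyreactivity follow the gate of origin.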"}
{"sequence": "QVQLVESGGGLVQAGGSLRLSCAASGSIFVYYAMGWYRQAPGKDRELVAAITTSGGSTYYADSVKGRFTISRDNAKNTVYLQMNSLKPEDTAVYYCAAVLLAWYWSYSVPWAYDYWGQGTQVTVTS", "polyreactivity (PSR sort gate)": "low polyreactivity"}
{"sequence": "QVQLVESGGGLVQAGGSLRLSCAASGRTFRSYTMGWYRQAPGKERELVASITRSGVSTYYADSVKGRFTISRDNAKNTVYLQMNSLKPEDTAVYYCAAYSVFRSYDYWGQGTQVTVSS", "polyreactivity (PSR sort gate)": "high polyreactivity"}
{"sequence": "QVQHVESRGGLVQAGGSLRLSCAASGSTIISNAQGWYRLAPGKERELVASIRSSGSTNYADSVKGRFTISRDNAKNTVYLKMNSLKPEDTAVYYCAAGSYWVQFQYDYWGQGTQVTVSS", "polyreactivity (PSR sort gate)": "low polyreactivity"}
{"sequence": "QVQLVESGGGLVQAGGSLRLSCAASGRIFTRYAMGWYRQAPGKERELVAAISRGGARTYYADSVKGRFTISRDNAKNTVYLQMNSLKPEDTAVYYCARQRVKTDRISGYDYWGQGTQVTVSS", "polyreactivity (PSR sort gate)": "high polyreactivity"}
{"sequence": "QVQLVESGGGLVQAGGSLRLSCAASGSTSRGYAMGWYRQAPGEERELVASITLSGGNTYYADSVKGRFTISRDNAKNTVYLQMNSLKPEDTAVYYCAADDRGSSYGHFTVEYGYWGQGTQVTVSS", "polyreactivity (PSR sort gate)": "low polyreactivity"}
{"sequence": "QVQLVESGGGIVQAGGSLRLSCAASGRTIYFNAMGWYRQAPGKERELVATISRSTGSTYYADSVKGRFTISRDNAKNTVYLQMNSLKPEYTAVYYCNATPWGYARMDYWGQGTQVTVSS", "polyreactivity (PSR sort gate)": "low polyreactivity"}
{"sequence": "QVQLIESGGGLVQAGGSLRLSCAASGSIFYINTMGWYRQAPGKERELVATIRTSGGSTYADSVKGRFTISRDNAKNTVYLQMNSLKPEDTAVYYCAVRRYRSSSYGYYSWGQGTQVTVSS", "polyreactivity (PSR sort gate)": "high polyreactivity"}
{"sequence": "QVQLVESGGGIVQAGGSLRVSCAASGRTFYSSAMGWYRQAPGKERELVAAISWNGGSTYYADSVKGRFTISRDNAKNTVYLQMNSLNPEDTAVYYCAATYLLRGDAYYSWGQGTQVTVSS", "polyreactivity (PSR sort gate)": "high polyreactivity"}
{"sequence": "QVQLVESGGGLVQAGGSLSLSCDASGRIFVVKAMGWYRQAPGKERELVAAITRRGGSTYADSVKGRFTISRDNAKNTVYLQMNSLKPEDTAVYYCNAESYYGIFSYKYDYWGQGTQVTVSS", "polyreactivity (PSR sort gate)": "high polyreactivity"}
{"sequence": "QVQLVESGGGLVQAGGSLRLSCAASGRTFSKYTMGWYRQAPGKERELVAAIDRSGGSTYYADSVKGRFSISRDNAKNTVYLQMNSLKPEDTAVYYCNTGLRYYSYRRDYWGQGTQVTVSS", "polyreactivity (PSR sort gate)": "high polyreactivity"}
{"sequence": "QVQLVESGGGLVQAGGSLRLSCAASGSTFCRNAMGWYRQAPGKERELVAAISRRGGSTYYADSVKGRFTISRDNAKNTVYLQMTSLKPEDTAVYYCYRDSSYKHNYDYWAQGTQVTVSS", "polyreactivity (PSR sort gate)": "high polyreactivity"}
{"sequence": "QVQLVESGGGLVQAGGSLRLSCAASGGTFDYNAMGWYRQAPGKERELVAAITSGASTYYADSVKGRFTISRDNAKNTVYLQMNSLKPEDTAVYYCAKGPTPGYDYWGQGTQVTVSS", "polyreactivity (PSR sort gate)": "low polyreactivity"}
{"sequence": "QVQLVESGGGLVQAGGSLRLSCAASGRTFGPYAMGWYRQPPGKEREFVAAISYSGGSTYYADSVKGRLTISRDNAKNTVDLQMNSLKPEVTAVYYCAVDIDANSGTRDYWGQGTQVTVSS", "polyreactivity (PSR sort gate)": "low polyreactivity"}
{"sequence": "QVQLVESGGGLVQAGGSLRLSCAASGSTCASYAMGWYRQAPGKERELVAAITDSGGSTYYADSVKGRFTISRDNAKNTVYLQMNSLKPEDTAVYYCAAYGAYFSYHDYEYWGHGTQVTVSS", "polyreactivity (PSR sort gate)": "low polyreactivity"}
{"sequence": "QVHLVESGGGLVQAGGILRLSCAAYGSTFKSYAMGWYRLAPGKERELVAAISSSTGRTYYADSVKGRFTISLDYAKNTVYLQMNSMKPEDTAVYYCNAVHRYERDYCGQGTQVTVSS", "polyreactivity (PSR sort gate)": "high polyreactivity"}
{"sequence": "QVQLLESGRGLVQAGGSLRLSCAPSGSIFSGMVMGWYIQAPGKERELVAAISSRGGNTYYADSVKGRFTISRDNAKNTVYLQMNSLITEDTAVYYCNKVKFNWYEWGQGTQVSVSS", "polyreactivity (PSR sort gate)": "high polyreactivity"}
{"sequence": "QVQLVESGGGIVQAGGSLRLSCAASGRTFYYYAMGWYRQAPGKERELVASISWSGGSTYYADSVKGRFTISRDNAKNTVYLQMNSLKPEDTAVYYCNAQYHTYRWLYAVYLSGDYWGQGTQVTVSS", "polyreactivity (PSR sort gate)": "low polyreactivity"}
{"sequence": "QVQLVESGGGLVQAGGSLRLSCAASGNIFKYYAMGWYRQAPGKERELVAAISWGGSRTYYADSVKGRFTISRDNAKNTVSLQMNSLKPEDTAVYYCAARVYGVDGFGYWGLGTQVTVSS", "polyreactivity (PSR sort gate)": "high polyreactivity"}
{"sequence": "QVQLVESGGGLVQAGGSLRLSCAGSGFIITQYPMGWYRQAPGKERELVAAISGNGGRTYYADSVKGRFTISRDNAKNTDYLQMNSLKPEDTAVYYCAVTRPGRRYPFGYDYWGQGTQVTVSS", "polyreactivity (PSR sort gate)": "low polyreactivity"}
{"sequence": "QVQLVESGGGLVQAGGSLRLSCAASGSTSNLYAMGWYIQAPGKERELVAAITSIDGGTYYADSVKGRFTISRDNAKNTVYLQMNSLKAEDTAVYYCNAEDRFFYWGGYDYWGQGTQVTVSS", "polyreactivity (PSR sort gate)": "low polyreactivity"}
{"sequence": "QVQLVESGGGLVQAGGSLRLSCAASGRIIDRNDMGWYRQAPGKERELVAAISSSGSTNYADSVKGRFTISRDNAKNTVYLQMNSLKPEHTAGYYCADRWRSVLASGTRPVSFDYWGQGTQVTVSS", "polyreactivity (PSR sort gate)": "low polyreactivity"}
{"sequence": "QVQLVESGGGLVQAGGSLRLSCAASGRTFYLYAMGWYRPAPGKERELVAAITWSGGSTYYADSVKGRFTISRYNAKNTVFLQMNSLKPEDTAVYYCAAGLYLFQIWFGNEYDYWGQGTQVTVSS", "polyreactivity (PSR sort gate)": "high polyreactivity"}
{"sequence": "QVQLVESGGGLVQAGGSLRLSCAASGSTFYPYAMGWYRQAPGKERELVADITNSGSTYYADSVKGRFTISRDNAKNTVYLQMNCLKPEDTAVYYCSASVYSVADYYYWGQGTQVTVSS", "polyreactivity (PSR sort gate)": "low polyreactivity"}
{"sequence": "QVQLVESGGGLVQAGGSLRLSCAASGSIFGANTMGWYRQAPGKERELVAGITSGARTYYADSVKGRFTISRDNAKNTVYLQMNSLKPEDTAVYYCAAQYAWRRYGYWGQGTQVTVSS", "polyreactivity (PSR sort gate)": "high polyreactivity"}
{"sequence": "QVQLVESGGGLVQAGGSLRLSCAASGSTSALYAMGWYRQAPGKERELVATITRSGTTKYADSVKGRFTISRDNAKNTVYLQMNSLKPEDTAVYYCNTDTYFPLYDYWGQGTQVTVSS", "polyreactivity (PSR sort gate)": "low polyreactivity"}
{"sequence": "QVQLVESGGRLVQAGASLRLSCAASGSTFSTNAMGWYRQAPGKEREFVPAISRSGGRTYYADSVKGRFTISRDNAKNTVYLQMNSLKRDDTAVYYCAAGITHEGRDGDYWGQGTQVTVSS", "polyreactivity (PSR sort gate)": "high polyreactivity"}
{"sequence": "QVQLVESGGGLVQAGGSLRLSCAASGITFYRYAMGWYRQAPGKERELVAAIRGGGASTYYADSVKGRFTISRDNAKNTVYLQMNSLKPEDTAVYYCAARAARSITNGYWGQGTQVTVSS", "polyreactivity (PSR sort gate)": "high polyreactivity"}
{"sequence": "QVQLHESGGGLVQAGGSLRLSCAASGTITDSGLMGWYRQAPGKERELVAGISSGGITNYADSVKGRFTISRDNAKNTVYLQMNSLKPEDTAVYWGQGTQVTVSS", "polyreactivity (PSR sort gate)": "low polyreactivity"}
{"sequence": "QFQLVESGGGLVQAGGSLRLTCAASVSTFSSYVMGWYRQAPGKDRELVAAISSIGGSTYYADSVKGRFTISRDNAKTNDYLQMNSLKPEDTAVYYCAAEPPGSTYEGGYWGQGTQVTVSS", "polyreactivity (PSR sort gate)": "low polyreactivity"}
{"sequence": "QVQLVESGGGLVQAGGSLRLSCAASGSIFYLNAMGWYRMAPGKERELVATISNGGSTNYADSVKGRFTISRDNAKNTVYLQMNSLKPEDTAVYYCAAASGGTVVGEGDYWGQGTQVTVSS", "polyreactivity (PSR sort gate)": "low polyreactivity"}
{"sequence": "QVQLVESGGGLVQAGGSLRLSCAASGSTFYINAMGWYRQAPGKERELVAAISWGGGSTYYADSVKGRFTISRDNAKNTVYLQMNSLKPEDTAVYYCAKLKGTQPNRYDYWGQGTQVTVSS", "polyreactivity (PSR sort gate)": "low polyreactivity"}
{"sequence": "QDQLVESGGGLVHAGGSLRLSCVPPDSSSLSMLWDGIDRRLGKKGSWLPELTSRGVGTYYADSVKGRFTISRDNAKNPVYLQMNSLKPEDTAVYYCNARYEVFYRYDYWGQGTQVTVSS", "polyreactivity (PSR sort gate)": "low polyreactivity"}
{"sequence": "QVQLVESGGGLVQAGGSLRFSCAASGSIIYFYAMGWYRQAPGKERELVATITSGGRTYYADSVKGRFTISRDTAKNTVYLQMNSLKPEDTAVYYCNRRPVSYRYSSYNYDYLGQGTQVTVSS", "polyreactivity (PSR sort gate)": "high polyreactivity"}
{"sequence": "QVQLVESGGGLVQAGGSLRLSCAASGRTISYYAMGWYRQAPGKERELVAAITSSGSRTYYADSVKGRFTISRDNAKNTVYLQMNSLKPEDTAVYYCAAGKPYFRYDSWGQGTQVTVSS", "polyreactivity (PSR sort gate)": "high polyreactivity"}
{"sequence": "QVQLVESGVGLVQAGGSLRLSCAASGSIFDKNAMGWDRPAPGKERELVAAISRSGGSTYYADSVKGRFTISRDNAKNTVYLQMNSLKPEDTAVYYCNKYTNGRNFDYWGQGTQVTVSS", "polyreactivity (PSR sort gate)": "high polyreactivity"}
{"sequence": "QVQLVESGGALVQAGGSIRLSCAASGRIFLHYAMGWYRQAPGKERELVAAISSSGGSTYYADSVKGRFTISRDNAKNTVYLQMKSLKPEDTAVYYCAAAYPVKTTEGYYYWGQGTHVTVSS", "polyreactivity (PSR sort gate)": "high polyreactivity"}
{"sequence": "QVHLVESGGGLVQAGGSLRLSCAASGFTLFGYAMGWYRQAPGKERELVAAISKDGGSTYYADSVKGRFTISRDNAKNTVYLQMNSLKPEDTAVYYCAARVKRPQTGYDRRYGYWGQGTQVTVSS", "polyreactivity (PSR sort gate)": "high polyreactivity"}
{"sequence": "QVQLVESGGGLVQAGGSLRLSCAASGSIFARYAMGWYRQAPGKEREFVAAITGRGGTTNYADSVKGRFTISRDNAKNTVYLQMNSLKPEDTAVYYCNARDRYREHDYWGQGTQVTVSS", "polyreactivity (PSR sort gate)": "high polyreactivity"}
{"sequence": "QVQLVESGGGLVQAGGSLRLSCAASGSIIFVYAMGCYRQAPGKERELVAGINSSGTSTYADSVKGRFTISRDNAKNTVYLQMNSLKPEDTAVYYCAARWFYYRWAYDYWGQGTQVTVSS", "polyreactivity (PSR sort gate)": "low polyreactivity"}
{"sequence": "QVQLVESGGGLVQAGGSLRLSCAASGLIFPPNAMGWYRQAPGKERELVASITRSGVSTNYADSVKGRFTISRDNAKNTVYLQMNSLKPEDTAVYYCAAVIYSTYTIPNDEMGYWGHGTQVTVSS", "polyreactivity (PSR sort gate)": "low polyreactivity"}
{"sequence": "QFQLVESGGGLVQAGGSLRLSCAASGRTFYDNTMGWYRQAPGKERELVAAITRNGGSTYYADSVKGRFTISRDNAKNTVYLQMNSLKPEDTAVYYCAAEGPSHRLNVRLVKGSDSWGQGTQVTVSS", "polyreactivity (PSR sort gate)": "low polyreactivity"}
{"sequence": "QVQLVESGGGLVQAGGSLRLSCAASGRIFDYNAMGWYRQAPGKERELVAAITKDDGSTYYADSVKGRFTISRDNAKNTVYLQMNSLKPEDTAVYYCAAEFYWTYVDIWYDYWGQGTQVTVSS", "polyreactivity (PSR sort gate)": "low polyreactivity"}
{"sequence": "QVQLVESGGGLVQAGGSLRLSCAASGGTFSYYAMGWYRQAPGKERELVAAISKRGGSTYYADSVKGRFTISRDNAKNTVYLQMNSLKPEETAVYYCARGYSWSVGYPRVQDMDYWGQGTQVTVSS", "polyreactivity (PSR sort gate)": "high polyreactivity"}
